Data on one variant can be found in IntAct's records for PubMed 23858060.

B1: Galactose/lactose metabolism regulatory protein GAL80 (Saccharomyces cerevisiae), P04387 (parent)
chain: MDYNKRSSVSTVPNAAPIRVGFVGLNAAKGWAIKTHYPAILQLSSQFQITALYSPKIETSIATIQRLKLSNATAFPTLESFASSSTIDMIVIAIQVASHYEVVMPLLEFSKNNPNLKYLFVEWALACSLDQAESIYKAAAERGVQTIISLQGRKSPYILRAKELISQGYIGDINSIEIAGNGGWYGYERPVKSPKYIYEIGNGVDLVTTTFGHTIDILQYMTSSYFSRINAMVFNNIPEQELIDERGNRLGQRVPKTVPDHLLFQGTLLNGNVPVSCSFKGGKPTKKFTKNLVIDIHGTKGDLKLEGDAGFAEISNLVLYYSGTRANDFPLANGQQAPLDPGYDAGKEIMEVYHLRNYNAIVGNIHRLYQSISDFHFNTKKIPELPSQFVMQGFDFEGFPTLMDALILHRLIESVYKSNMMGSTLNVSNISHYSL
partner: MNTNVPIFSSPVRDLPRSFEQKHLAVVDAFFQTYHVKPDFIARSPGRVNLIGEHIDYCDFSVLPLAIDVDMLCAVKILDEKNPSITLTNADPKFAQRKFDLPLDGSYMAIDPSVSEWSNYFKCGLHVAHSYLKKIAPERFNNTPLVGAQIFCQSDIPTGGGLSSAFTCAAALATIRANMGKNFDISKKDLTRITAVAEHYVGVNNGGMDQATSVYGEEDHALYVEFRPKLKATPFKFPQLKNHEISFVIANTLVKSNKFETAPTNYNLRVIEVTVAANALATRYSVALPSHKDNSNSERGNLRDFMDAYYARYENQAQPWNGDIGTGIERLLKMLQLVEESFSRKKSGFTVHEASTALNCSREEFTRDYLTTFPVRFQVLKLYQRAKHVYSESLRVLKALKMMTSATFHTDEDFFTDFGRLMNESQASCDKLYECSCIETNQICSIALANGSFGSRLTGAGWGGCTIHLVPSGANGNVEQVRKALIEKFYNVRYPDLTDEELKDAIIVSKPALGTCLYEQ

Variants of B1 are the subject of this test. The following applies: with gal3_yeast GAL3, P13045.
With MDYNKRSSVSTVPNAAPIRVGFVGLNAAKGWAIKTHYPAILQLSSQFQITALYSPKIETSIATIQRLKLSNATAFPTLESFASSSTIDMIVIAIQVASHYEVVMPLLEFSKNNPNLKYLFVEWALACSLDQAESIYKAAAERGVQTIISLQGRKSPYILRAKELISQGYIGDINSIEIAGNGGWYGYERPVKSPKYIYEIGNGVDLVTTTFGHTIDILQYMTSSYFSRINAMVFNNIPEQELIDERGNRLGQRVPKTVPDHLLFQGTLLNGNVPVSCSFKGGKPTKKFTKNLVIDIHGTKGDLKLEGDAGFAEISNLVLYYSGTRANDFPLANGQQAPLDPGYDAGKEIMKVYHLRNYNAIVGNIHRLYQSISDFHFNTKKIPELPSQFVMQGFDFEGFPTLMDALILHRLIESVYKSNMMGSTLNVSNISHYSL [E351K], the “effect of a mutation on the interaction” value is given as “with no effect”.
